In publication PMC5314766:

T1: Rrp6 Lassoless, catalytically dead (Saccharomyces cerevisiae, UniProt Q12149 128-634, D238N)
T1 sequence: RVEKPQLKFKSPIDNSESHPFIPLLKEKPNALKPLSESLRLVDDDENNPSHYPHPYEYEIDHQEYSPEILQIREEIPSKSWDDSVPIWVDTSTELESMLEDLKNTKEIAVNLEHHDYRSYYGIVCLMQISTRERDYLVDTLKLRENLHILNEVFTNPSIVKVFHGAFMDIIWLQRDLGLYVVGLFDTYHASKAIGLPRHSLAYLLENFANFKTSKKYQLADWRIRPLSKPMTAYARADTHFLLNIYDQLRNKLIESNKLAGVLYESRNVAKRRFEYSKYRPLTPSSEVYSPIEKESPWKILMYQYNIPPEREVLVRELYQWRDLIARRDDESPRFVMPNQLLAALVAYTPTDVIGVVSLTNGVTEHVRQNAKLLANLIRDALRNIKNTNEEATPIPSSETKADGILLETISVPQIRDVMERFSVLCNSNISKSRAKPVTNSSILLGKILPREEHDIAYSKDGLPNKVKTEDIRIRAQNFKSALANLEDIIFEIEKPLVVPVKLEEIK

T2: Rrp6 EARless, catalytically dead (Saccharomyces cerevisiae, UniProt Q12149 128-733, D238N;del517-617)
T2 sequence: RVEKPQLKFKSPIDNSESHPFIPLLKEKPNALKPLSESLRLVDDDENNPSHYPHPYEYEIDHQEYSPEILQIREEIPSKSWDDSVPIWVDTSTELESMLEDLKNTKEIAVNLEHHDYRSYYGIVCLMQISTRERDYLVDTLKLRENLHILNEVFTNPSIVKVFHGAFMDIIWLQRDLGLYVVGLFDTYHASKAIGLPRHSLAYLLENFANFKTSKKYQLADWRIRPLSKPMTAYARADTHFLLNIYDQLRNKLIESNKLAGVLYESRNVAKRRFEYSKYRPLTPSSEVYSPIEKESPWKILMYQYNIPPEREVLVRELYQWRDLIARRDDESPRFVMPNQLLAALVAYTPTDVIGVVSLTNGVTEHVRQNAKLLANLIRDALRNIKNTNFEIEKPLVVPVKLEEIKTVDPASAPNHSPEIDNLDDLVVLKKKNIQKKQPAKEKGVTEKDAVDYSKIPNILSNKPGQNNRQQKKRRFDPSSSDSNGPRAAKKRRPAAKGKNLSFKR

T3: Rrp6 Lasso (CTD intact), catalytically dead (Saccharomyces cerevisiae, UniProt Q12149 128-733, D238N)
T3 sequence: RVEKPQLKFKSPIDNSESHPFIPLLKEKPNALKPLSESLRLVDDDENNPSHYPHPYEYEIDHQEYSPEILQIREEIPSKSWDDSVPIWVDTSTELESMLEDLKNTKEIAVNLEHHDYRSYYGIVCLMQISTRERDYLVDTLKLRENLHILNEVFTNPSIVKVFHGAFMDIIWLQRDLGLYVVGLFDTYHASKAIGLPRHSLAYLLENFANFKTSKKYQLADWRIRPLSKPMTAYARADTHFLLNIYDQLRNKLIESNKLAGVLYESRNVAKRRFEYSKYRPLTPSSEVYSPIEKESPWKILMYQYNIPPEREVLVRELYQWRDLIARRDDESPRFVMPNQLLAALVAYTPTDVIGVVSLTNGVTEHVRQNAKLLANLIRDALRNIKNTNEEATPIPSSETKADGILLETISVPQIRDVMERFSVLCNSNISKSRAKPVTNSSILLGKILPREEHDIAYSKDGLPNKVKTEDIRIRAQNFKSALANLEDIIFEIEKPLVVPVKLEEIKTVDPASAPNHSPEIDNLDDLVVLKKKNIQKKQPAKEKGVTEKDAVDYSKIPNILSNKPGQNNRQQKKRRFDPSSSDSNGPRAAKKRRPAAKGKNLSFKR


Experiments:
Assay in all cases: fluorescence polarization
Exo10(6exo-) Lasso = Exo10(6exo-) Lasso (Saccharomyces cerevisiae, UniProt Q12149;P46948;Q12277;P25359;Q05636;P53256;P48240;P38792;Q08285;P53859 …, D238N)
[1] = target: T1, Rrp6 Lassoless, catalytically dead
[2] = target: T2, Rrp6 EARless, catalytically dead
[3] = target: T3, Rrp6 Lasso (CTD intact), catalytically …
[4] = target: Exo11(44exo-/6exo-) Lassoless (Saccharomyces cerevisiae, UniProt Q12149;Q08162;P46948;Q12277;P25359;Q05636;P53256;P48240;P38792;Q08285;P53859 …, D238N;D551N)
[5] = target: Exo10(6exo-) Partial lasso (Saccharomyces cerevisiae, UniProt Q12149;P46948;Q12277;P25359;Q05636;P53256;P48240;P38792;Q08285;P53859 …, D238N)
Exo10(6exo-) Lassoless = Exo10(6exo-) Lassoless (Saccharomyces cerevisiae, UniProt Q12149;P46948;Q12277;P25359;Q05636;P53256;P48240;P38792;Q08285;P53859 …, D238N)

Binder	binding result (Exo10(6exo-) Lasso)	binding signal [1]	binding signal [2]	binding signal [3]	binding signal [4]	binding signal [5]	binding signal (Exo10(6exo-) Lassoless)
AUUAUUUAUUUAUUAUUAUUUAUU (ssRNA) [AU-rich RNA 24 nt]	binds						
AAAAAAAAAAAAAAAAAAAAAAAAAAAAAAAAAAAAA (ssRNA) [37 nt polyA RNA]		4 fold weaker than lasso-containing (P3)	6 fold tighter than lassoless (P4)	4 fold tighter than lassoless (P4)	6 fold weaker than P9	> 15 fold weaker than P6	> 15 fold weaker than P6
